Reference: the supplement of paper PMC9112550, “Optimization of the antimicrobial peptide Bac7 by deep mutational scanning” (BMC Biology, 2022)

What follows are sequences tested on Escherichia coli TOP10 (assay: shrunken log2 fold change of peptide-encoding DNA abundance (4.5 h post-induction vs induction); higher = less antimicrobial activity (less host growth inhibition)). Conditions: time post-induction: 4.5 h; library: site-saturation at positions 5, 18, 19, 20.
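Note: peptides expressed intracellularly from a pBAD plasmid library in pooled LB shake-flask culture, induced with 0.3% L-arabinose, DNA abundance read by NGS, three biological replicates, DESeq2 with apeglm shrinkage.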

Sequence	shrunken log2 fold change
RRIRNRPPRLPRPRPRPMSAPRP	0.0853
RRIRRRPPRLPRPRPRPSIFPRP	-0.192
RRIRVRPPRLPRPRPRPNCCPRP	-0.0903
RRIRNRPPRLPRPRPRPNWIPRP	-0.0612
RRIRIRPPRLPRPRPRPDWEPRP	-0.0114
RRIRLRPPRLPRPRPRPNLVPRP	-0.283
RRIRWRPPRLPRPRPRPCYWPRP	-0.201
RRIRKRPPRLPRPRPRPNMYPRP	-0.14
RRIRKRPPRLPRPRPRPQDNPRP	-0.0637
RRIRRRPPRLPRPRPRPTYQPRP	0.112
RRIRWRPPRLPRPRPRPLTCPRP	0.0568
RRIRPRPPRLPRPRPRPQHPPRP	0.0328
RRIRLRPPRLPRPRPRPYCMPRP	-1.34
RRIRYRPPRLPRPRPRPLWVPRP	-0.0829
RRIRERPPRLPRPRPRPTAIPRP	0.32
RRIRHRPPRLPRPRPRPSCFPRP	-0.257
RRIRTRPPRLPRPRPRPLYNPRP	-0.715
RRIRDRPPRLPRPRPRPPKLPRP	0.0369
RRIRHRPPRLPRPRPRPIYEPRP	-0.234
RRIRCRPPRLPRPRPRPWNAPRP	-0.129
RRIRIRPPRLPRPRPRPQLNPRP	-0.499
RRIRNRPPRLPRPRPRPRRVPRP	0.551
RRIRLRPPRLPRPRPRPLAMPRP	-0.218
RRIRGRPPRLPRPRPRPNPPPRP	0.336
RRIRQRPPRLPRPRPRPEYVPRP	-0.0886

Sequence	shrunken log2 fold change
RRIRYRPPRLPRPRPRPWYVPRP	-1.13
RRIRLRPPRLPRPRPRPKQCPRP	-0.0836
RRIRMRPPRLPRPRPRPVCAPRP	0.698
RRIRPRPPRLPRPRPRPMRSPRP	0.478
RRIRVRPPRLPRPRPRPAKEPRP	0.226
RRIRNRPPRLPRPRPRPCDFPRP	-0.529
RRIRARPPRLPRPRPRPSHVPRP	-0.306
RRIRWRPPRLPRPRPRPPYDPRP	-0.0917
RRIRSRPPRLPRPRPRPCVTPRP	0.0116
RRIRRRPPRLPRPRPRPDQGPRP	-0.0712
RRIRYRPPRLPRPRPRPQWEPRP	-0.0193
RRIRDRPPRLPRPRPRPAIEPRP	0.0117
RRIRTRPPRLPRPRPRPRANPRP	0.177
RRIRDRPPRLPRPRPRPKMFPRP	0.00408
RRIRYRPPRLPRPRPRPLTEPRP	-0.00518
RRIRGRPPRLPRPRPRPDNAPRP	0.364
RRIRFRPPRLPRPRPRPAIGPRP	-0.0142
RRIRHRPPRLPRPRPRPKRVPRP	-0.0983
RRIRWRPPRLPRPRPRPKEFPRP	-0.228
RRIRWRPPRLPRPRPRPRAGPRP	0.673
RRIRQRPPRLPRPRPRPREKPRP	0.158
RRIRSRPPRLPRPRPRPWIDPRP	-0.615
RRIRFRPPRLPRPRPRPLGHPRP	-0.0599
RRIRARPPRLPRPRPRPYQCPRP	-0.44
RRIRGRPPRLPRPRPRPEHVPRP	0.0775

Sequence	shrunken log2 fold change
RRIRIRPPRLPRPRPRPSSIPRP	-0.169
RRIRCRPPRLPRPRPRPYSWPRP	-0.77
RRIRFRPPRLPRPRPRPMISPRP	-0.446
RRIRFRPPRLPRPRPRPRNEPRP	-0.0379
RRIRSRPPRLPRPRPRPSIDPRP	-0.536
RRIRVRPPRLPRPRPRPMCQPRP	-0.0733
RRIRNRPPRLPRPRPRPEAAPRP	0.902
RRIRDRPPRLPRPRPRPYICPRP	-0.148
RRIRSRPPRLPRPRPRPQECPRP	-0.0587
RRIRMRPPRLPRPRPRPPPWPRP	1.38
RRIRYRPPRLPRPRPRPCFFPRP	-0.619
RRIRCRPPRLPRPRPRPELCPRP	0.488
RRIRTRPPRLPRPRPRPFVGPRP	-0.035
RRIRNRPPRLPRPRPRPQWNPRP	-0.319
RRIRHRPPRLPRPRPRPQMQPRP	-0.0236
RRIRCRPPRLPRPRPRPEECPRP	-0.0128
RRIRCRPPRLPRPRPRPTGDPRP	0.231
RRIRPRPPRLPRPRPRPQKFPRP	-0.178
RRIRTRPPRLPRPRPRPFEAPRP	0.0368
RRIRPRPPRLPRPRPRPCGRPRP	0.302
RRIRARPPRLPRPRPRPHFAPRP	0.733
RRIRMRPPRLPRPRPRPKKSPRP	1.18
RRIRDRPPRLPRPRPRPMKDPRP	-0.0395
RRIRARPPRLPRPRPRPFDPPRP	0.0109
RRIRNRPPRLPRPRPRPSVAPRP	-0.0478

Sequence	shrunken log2 fold change
RRIRWRPPRLPRPRPRPGLMPRP	0.444
RRIRGRPPRLPRPRPRPIPIPRP	0.0541
RRIRTRPPRLPRPRPRPYEYPRP	0.0353
RRIRNRPPRLPRPRPRPRHAPRP	0.0219
RRIRVRPPRLPRPRPRPGMQPRP	0.116
RRIRNRPPRLPRPRPRPRCFPRP	-0.404
RRIRQRPPRLPRPRPRPIELPRP	-0.293
RRIRSRPPRLPRPRPRPQKEPRP	0.052
RRIRCRPPRLPRPRPRPRSHPRP	-0.00365
RRIRRRPPRLPRPRPRPWVPPRP	-0.0825
RRIRNRPPRLPRPRPRPTADPRP	0.422
RRIRKRPPRLPRPRPRPVTEPRP	0.42
RRIRMRPPRLPRPRPRPYMKPRP	-0.0154
RRIRKRPPRLPRPRPRPVCWPRP	0.897
RRIRERPPRLPRPRPRPWNLPRP	-0.00195
RRIRCRPPRLPRPRPRPADPPRP	-0.195
RRIRLRPPRLPRPRPRPIIVPRP	-0.0625
RRIRLRPPRLPRPRPRPPDMPRP	-0.111
RRIRHRPPRLPRPRPRPVMSPRP	-0.0285
RRIRRRPPRLPRPRPRPIRIPRP	-0.106
RRIRERPPRLPRPRPRPRQYPRP	-0.369
RRIRKRPPRLPRPRPRPRSTPRP	0.177
RRIRTRPPRLPRPRPRPTAMPRP	0.301
RRIRQRPPRLPRPRPRPCVMPRP	-0.149
RRIRWRPPRLPRPRPRPFYNPRP	-0.242

Sequence	shrunken log2 fold change
RRIRRRPPRLPRPRPRPSRGPRP	0.432
RRIRRRPPRLPRPRPRPNNDPRP	-0.358
RRIRLRPPRLPRPRPRPFSGPRP	-0.374
RRIRIRPPRLPRPRPRPAREPRP	0.604
RRIRRRPPRLPRPRPRPHYAPRP	0.148
RRIRERPPRLPRPRPRPGGMPRP	-0.02
RRIRGRPPRLPRPRPRPISHPRP	-0.0449
RRIRVRPPRLPRPRPRPGWYPRP	0.0128
RRIRSRPPRLPRPRPRPFFFPRP	0.168
RRIRYRPPRLPRPRPRPHQHPRP	0.0599
RRIRKRPPRLPRPRPRPCLGPRP	0.0457
RRIRERPPRLPRPRPRPSCVPRP	-0.356
RRIRVRPPRLPRPRPRPMPSPRP	0.333
RRIRHRPPRLPRPRPRPCETPRP	-0.332
RRIRWRPPRLPRPRPRPEMCPRP	-0.0695
RRIRRRPPRLPRPRPRPIAVPRP	-0.0851
RRIRLRPPRLPRPRPRPPMSPRP	0.0743
RRIRHRPPRLPRPRPRPLQMPRP	-0.147
RRIRCRPPRLPRPRPRPADNPRP	-0.219
RRIRQRPPRLPRPRPRPYNRPRP	-0.0882
RRIRDRPPRLPRPRPRPDAYPRP	0.0301
RRIRMRPPRLPRPRPRPCLRPRP	-0.0737
RRIRNRPPRLPRPRPRPKPIPRP	0.202
RRIRCRPPRLPRPRPRPVKNPRP	-0.344
RRIRDRPPRLPRPRPRPFMSPRP	-0.0203

Sequence	shrunken log2 fold change
RRIRCRPPRLPRPRPRPNNFPRP	-0.493
RRIRQRPPRLPRPRPRPLWRPRP	3.25
RRIRERPPRLPRPRPRPKGVPRP	0.723
RRIRTRPPRLPRPRPRPWWMPRP	-0.133
RRIRERPPRLPRPRPRPQLHPRP	-0.216
RRIRDRPPRLPRPRPRPWMTPRP	-0.29
RRIRVRPPRLPRPRPRPPYMPRP	-0.592
RRIRRRPPRLPRPRPRPDVIPRP	-0.068
RRIRWRPPRLPRPRPRPRGVPRP	0.756
RRIRLRPPRLPRPRPRPLTNPRP	-0.325
RRIRRRPPRLPRPRPRPCTTPRP	0.212
RRIRNRPPRLPRPRPRPPKFPRP	-0.0082
RRIRWRPPRLPRPRPRPWGRPRP	0.0619
RRIRRRPPRLPRPRPRPHLPPRP	0.141
RRIRHRPPRLPRPRPRPGKTPRP	-0.031
RRIRKRPPRLPRPRPRPDGLPRP	-0.162
RRIRWRPPRLPRPRPRPFYFPRP	0.0389
RRIRQRPPRLPRPRPRPQSNPRP	-0.00933
RRIRCRPPRLPRPRPRPQSYPRP	-0.308
RRIRCRPPRLPRPRPRPTIAPRP	-0.211
RRIRNRPPRLPRPRPRPAMVPRP	-0.0286
RRIRTRPPRLPRPRPRPKYHPRP	-0.243
RRIRVRPPRLPRPRPRPIKVPRP	-0.167
RRIRARPPRLPRPRPRPDQHPRP	0.0116
RRIRHRPPRLPRPRPRPPMQPRP	0.268
